Measured values from paper PMC3201874.

Biological target: huPrP(23-110) (human) (UniProt P04156)
Settings: FRET: 25 mM Tris-HCl pH 7.5, 30 mM NaCl, 0.2 mM MgCl2, 20 C

Sequence of huPrP(23-110) (human) (P04156 23-110): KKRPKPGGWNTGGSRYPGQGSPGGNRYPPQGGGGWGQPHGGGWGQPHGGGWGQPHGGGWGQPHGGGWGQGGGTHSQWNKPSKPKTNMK

With cTAR the Ka was > 1e+07 M⁻¹.
